Measurements taken from patent publication US20210139545A1 (IBA, published 2021).

B1: mutein“1”-m41 (designed binder)
chain: EAGITGTWYNQLGSTFIVTAGADGALTGTYVTARGNAESRYVLTGRYDSAPATDGSGTALGWTVAWKNNYRNAHSATTWSGQYVGGAEARINTQWLLTSGTTEAWYSTLVGHDTFTKVKPSAAS
notes: Library 3 clone on mutein “1”
B2: mutein“1”-m302 (designed binder)
chain: EAGITGTWYNQLGSTFIVTAGADGALTGTYVTARGNAESRYVLTGRYDSAPATDGSGTALGWTVAWKNNYRNAHSATTWSGQYVGGAEARINTQWLLTSGTTEHWYSTLVGHDTFTKVKPSAAS
notes: Library 7 clone on mutein “1”, 118 and 119 deleted
B3: mutein“1”-m212 (designed binder)
chain: EAGITGTWYNQLGSTFIVTAGADGALTGTYVTARGNAESRYVLTGRYDSAPATDGSGTALGWTVAWKNNYRNAHSATTWSGQYVGGAEARINTQWLLTSGTTEHWLSTLVGHDTFTKVKPSAAS
notes: Library 6 clone on mutein “1”, 118 and 119 deleted
B4: mutein“1”-m207 (designed binder)
chain: EAGITGTWYNQLGSTFIVTAGADGALTGTYVTARGNAESRYVLTGRYDSAPATDGSGTALGWTVAWKNNYRNAHSATTWSGQYVGGAEARINTQWLLTSGTTETWLSTLVGHDTFTKVKPSAAS
notes: as for B3
B5: mutein“1”-m301 (designed binder)
chain: EAGITGTWYNQLGSTFIVTAGADGALTGTYVTARGNAESRYVLTGRYDSAPATDGSGTALGWTVAWKNNYRNAHSATTWSGQYVGGAEARINTQWLLTSGTTEHWMSTLVGHDTFTKVKPSAAS
notes: as for B2
B6: mutein m402 (designed binder)
chain: EAGITGTWYNQLGSTFIVTAGADGALTGTYACARGNAECRYVLTGRYDSAPATDGSGTALGWTVAWKNNYRNAHSATTWSGQYVGGAEARINTQWLLTSGTTEANAWKSTLVGHDTFTKVKPSAAS
notes: Library 1 clone
B7: mutein“1”-m101 (designed binder)
chain: EAGITGTWYNQLGSTFIVTAGADGALTGTYVTARGNAESRYVLTGRYDSAPATDGSGTALGWTVAWKNNYRNAHSATTWSGQYVGGAEARINTQWLLTSGTTEYNAFLSTLVGHDTFTKVKPSAAS
notes: Library 5 clone on mutein “1”
B8: mutein“1”-m111 (designed binder)
chain: EAGITGTWYNQLGSTFIVTAGADGALTGTYVTARGNAESRYVLTGRYDSAPATDGSGTALGWTVAWKNNYRNAHSATTWSGQYVGGAEARINTQWLLTSGTTEYNALWSTLVGHDTFTKVKPSAAS
notes: Library 5 clone on mutein “1”
B9: mutein“1”-m4 (designed binder)
chain: EAGITGTWYNQLGSTFIVTAGADGALTGTYVTARGNAESRYVLTGRYDSAPATDGSGTALGWTVAWKNNYRNAHSATTWSGQYVGGAEARINTQWLLTSGTTEDNAGFSTLVGHDTFTKVKPSAAS
notes: Library 3 clone on mutein “1”
B10: mutein“1”-m45 (designed binder)
chain: EAGITGTWYNQLGSTFIVTAGADGALTGTYVTARGNAESRYVLTGRYDSAPATDGSGTALGWTVAWKNNYRNAHSATTWSGQYVGGAEARINTQWLLTSGTTEYNAGFSTLVGHDTFTKVKPSAAS
notes: Library 3 clone on mutein “1”
B11: mutein m4001 (designed binder)
chain: EAGITGTWYNQLGSTFIVTAGADGALTGTYACGRGNAECRYVLTGRYDSAPATDGSGTALGWTVAWKNNYRNAHSATTWSGQYVGGAEARINTQWLLTSGTTEANAWKSTLVGHDTFTKVKPSAAS
notes: Library 2 clone
B12: mutein“1”-m36 (designed binder)
chain: EAGITGTWYNQLGSTFIVTAGADGALTGTYVTARGNAESRYVLTGRYDSAPATDGSGTALGWTVAWKNNYRNAHSATTWSGQYVGGAEARINTQWLLTSGTTEYNAFMSTLVGHDTFTKVKPSAAS
notes: Library 3 clone on mutein “1”
B13: mutein“1”-m23 (designed binder)
chain: EAGITGTWYNQLGSTFIVTAGADGALTGTYVTARGNAESRYVLTGRYDSAPATDGSGTALGWTVAWKNNYRNAHSATTWSGQYVGGAEARINTQWLLTSGTTEYNAYASTLVGHDTFTKVKPSAAS
notes: Library 3 clone on mutein “1”

Key:
[1] = target: T1, E. coli alkaline phosphatase Strep-tag®II fusion protein (E. coli, UniProt P00634 22-471 = phosphatase); assay: ELISA, mutein coated, BAP-StrepII titrated
T1 construct: mature; also called BAP-StrepII; BAP-StrepIII

[2] = target: T2, cytochrome b562 with C-terminally fused Strep-tagII (E. coli); assay: affinity chromatography, overloaded Sepharose column, washed, biotin elution
T2 construct: also called Cytb562-StrepII; Cytb562-StrepIII

[3] = target: T2, cytochrome b562 with C-terminally fused …; assay: affinity chromatography, capture from dilute solution (500 µg applied, 1 mg mutein)
[4] = target: T1, E. coli alkaline phosphatase …; assay: ELISA, second experiment, mutein coated, BAP-StrepII titrated
[5] = target: T2, cytochrome b562 with C-terminally fused …; assay: affinity chromatography, retention after overload; tied to m45 by Table 9 (308 % against 11 %)

Binder | (Δ(A405-A595)/Δt)max [1] [mOD] | KD(mutein“1”)/KDmutein [1] | Kd [1] [nM] | Retained Cytb562-StrepII [2] [µg] | Retained Cytb562-StrepII per immobilized mutein [2] [µg/µg] | Retained Cytb562-StrepII per immobilized mutein relative to mutein “1” [2] [%] | yield of Cytb562-StrepII applied [3] [%] | (Δ(A405-A595)/Δt)max [4] [mOD] | Kd [4] [nM] | retained Cytb562-StrepII relative to wt streptavidin [5] [fold]
B1 | 613 | 8.5 | 13 | 289 | 0.2 | 155 | 47 | – | – | –
B2 | 726 | 22 | 5 | 350 | 0.28 | 221 | 63 | – | – | –
B3 | 607 | 6.5 | 17 | 390 | 0.25 | 197 | 47 | – | – | –
B4 | 493 | 4.1 | 27 | 358 | 0.29 | 229 | 55 | – | – | –
B5 | 725 | 11 | 10 | 400 | 0.28 | 225 | 57 | – | – | –
B6 | – | – | 92 | 111 | 0.14 | 111 | 31 | – | – | –
B7 | 589 | 7.9 | 14 | – | – | – | – | – | – | –
B8 | 492 | 8.5 | 13 | 318 | 0.31 | 246 | 67 | – | – | –
B9 | 716 | 12.2 | 9 | 564 | 0.35 | 280 | 64 | 518 | 12 | –
B10 | 566 | 6.1 | 18 | 472 | 0.39 | 308 | 67 | – | – | 28
B11 | – | – | 20 | 175 | 0.16 | 127 | 34 | – | 27 | –
B12 | 945 | 9.2 | 12 | 429 | 0.32 | 254 | 61 | – | – | –
B13 | 968 | 9.2 | 12 | 479 | 0.31 | 245 | 60 | 644 | 13 | –
